Source: patent US20230192899A1 (published 2023)

Assays:
[1] = target: T1, soluble human CD47 ectodomain protein (human, UniProt Q08722 19-139); assay: SPR (Biacore), IgG captured via anti-Fc; run at beginning
T1 construct: also called hCD47; huCD47

[2] = target: T1, soluble human CD47 ectodomain protein; assay: SPR (Biacore), IgG captured via anti-Fc; run at end
[3] = target: human C-MET protein (ELISA coat) (human, UniProt P08581 25-932); assay: direct binding ELISA (FIG. 7C)
[4] = target: T2, human CD47 protein (ELISA coat) (human, UniProt Q08722 19-139); assay: direct binding ELISA (FIG. 7C)
T2 construct: also called hCD47

[5] = target: human CD47 on cells (human erythrocytes, MCF-7, BT-474) (human, UniProt Q08722 19-323); assay: cell-based or functional assay
[6] = target: T3, mouse membrane-presented CD47 on Tg32 mouse erythrocytes (mouse, UniProt Q61735 19-303); assay: flow cytometry on Tg32 mouse erythrocytes (FIG. 21)
T3 construct: whole, on cells
T3 sequence (looked up): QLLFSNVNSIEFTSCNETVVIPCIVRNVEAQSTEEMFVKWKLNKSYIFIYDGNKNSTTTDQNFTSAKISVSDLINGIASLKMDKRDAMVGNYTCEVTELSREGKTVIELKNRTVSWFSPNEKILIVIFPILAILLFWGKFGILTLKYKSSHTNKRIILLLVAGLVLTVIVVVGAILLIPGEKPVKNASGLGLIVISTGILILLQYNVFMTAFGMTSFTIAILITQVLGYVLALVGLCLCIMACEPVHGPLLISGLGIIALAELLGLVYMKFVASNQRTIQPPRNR

human C-MET protein (ELISA coat), sequence (P08581 25-932 limits assumed): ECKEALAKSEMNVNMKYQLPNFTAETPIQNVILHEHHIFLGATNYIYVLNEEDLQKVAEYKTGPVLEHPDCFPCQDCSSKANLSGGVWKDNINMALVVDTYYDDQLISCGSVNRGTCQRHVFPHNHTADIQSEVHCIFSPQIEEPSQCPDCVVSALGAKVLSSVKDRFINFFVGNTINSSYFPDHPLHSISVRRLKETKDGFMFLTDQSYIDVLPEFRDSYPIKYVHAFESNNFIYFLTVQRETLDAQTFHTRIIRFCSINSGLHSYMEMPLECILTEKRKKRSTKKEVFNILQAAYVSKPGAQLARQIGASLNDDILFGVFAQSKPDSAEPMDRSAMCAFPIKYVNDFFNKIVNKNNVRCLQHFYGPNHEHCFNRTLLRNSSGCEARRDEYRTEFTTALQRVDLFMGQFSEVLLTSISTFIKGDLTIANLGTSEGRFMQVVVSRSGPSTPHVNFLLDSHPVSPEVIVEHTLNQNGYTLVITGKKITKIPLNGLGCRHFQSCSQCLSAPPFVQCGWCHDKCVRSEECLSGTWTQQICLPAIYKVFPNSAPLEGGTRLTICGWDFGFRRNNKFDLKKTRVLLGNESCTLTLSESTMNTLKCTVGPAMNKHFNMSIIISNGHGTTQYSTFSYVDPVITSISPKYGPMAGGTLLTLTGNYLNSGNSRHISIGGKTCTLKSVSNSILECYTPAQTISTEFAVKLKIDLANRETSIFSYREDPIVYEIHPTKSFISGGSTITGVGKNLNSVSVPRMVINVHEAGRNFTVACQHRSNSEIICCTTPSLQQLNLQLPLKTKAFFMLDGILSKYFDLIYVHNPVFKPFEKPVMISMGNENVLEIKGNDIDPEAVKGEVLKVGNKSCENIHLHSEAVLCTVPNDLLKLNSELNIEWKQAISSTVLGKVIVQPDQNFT

B1: A-D5 anti-CD47 IgG1 (antibody, V domains shown)
VH: QVQLVQSGAEVKKPGESLKISCKGSGYTFTNYYIFWVRQMPGKGLEWMGIINPVDGDTNYNPSFQGQVTISADKSISTAYLQWSSLKASDTAMYYCARGGYTMDRWGQGTLVTVSS
VL: DIVMTQSPLSLPVTPGEPASISCRSSQSLLHSNGYNYLHWYLQKPGQSPQLLIYKVSNRLSGVPDRFSGSGSGTDFTLKISRVEAEDVGVYYCFQNTHTPRTFGGGTKVEIK
notes: also called A-D5 IgG1; A-D5 CD47 IgG
Kd [1]: 1.29 nM
koff [1]: 0.00107 s⁻¹
kon [1]: 833000 M⁻¹ s⁻¹
Kd [2]: 1.32 nM
koff [2]: 0.00103 s⁻¹
kon [2]: 775000 M⁻¹ s⁻¹

B2: Fab^2 cMETCD47-LHL-LHL (bispecific antibody)
heavy: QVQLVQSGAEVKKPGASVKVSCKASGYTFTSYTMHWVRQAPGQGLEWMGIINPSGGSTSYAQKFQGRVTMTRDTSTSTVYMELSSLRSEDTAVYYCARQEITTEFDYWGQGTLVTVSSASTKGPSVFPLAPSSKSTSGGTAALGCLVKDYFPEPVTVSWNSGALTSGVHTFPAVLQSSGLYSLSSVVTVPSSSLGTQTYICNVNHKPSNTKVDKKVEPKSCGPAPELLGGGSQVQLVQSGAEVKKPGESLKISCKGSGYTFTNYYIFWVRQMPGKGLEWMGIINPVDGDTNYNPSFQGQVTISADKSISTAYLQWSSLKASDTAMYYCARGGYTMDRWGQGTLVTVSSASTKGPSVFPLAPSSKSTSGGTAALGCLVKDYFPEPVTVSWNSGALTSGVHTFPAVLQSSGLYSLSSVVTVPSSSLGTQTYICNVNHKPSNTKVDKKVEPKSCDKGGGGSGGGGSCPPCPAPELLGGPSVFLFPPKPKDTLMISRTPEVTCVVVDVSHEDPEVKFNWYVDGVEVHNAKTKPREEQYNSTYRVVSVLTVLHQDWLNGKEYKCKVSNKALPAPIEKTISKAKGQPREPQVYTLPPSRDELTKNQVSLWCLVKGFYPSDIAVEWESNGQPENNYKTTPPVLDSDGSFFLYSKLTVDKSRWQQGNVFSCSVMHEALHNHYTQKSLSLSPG
light: EIVLTQSPGTLSLSPGERATLSCRASQSVSSYANSYLHWYQQKPGQAPRLLIYRGSTRESGIPDRFSGSGSGTDFTLTISRLEPEDFAVYYCQQSKSEPLTFGGGTKVEIKRTVAAPSVFIFPPSDEQLKSGTASVVCLLNNFYPREAKVQWKVDNALQSGNSQESVTEQDSKDSTYSLSSTLTLSKADYEKHKVYACEVTHQGLSSPVTKSFNRGECGPAPELLGGGSDIVMTQSPLSLPVTPGEPASISCRSSQSLLHSNGYNYLHWYLQKPGQSPQLLIYKVSNRLSGVPDRFSGSGSGTDFTLKISRVEAEDVGVYYCFQNTHTPRTFGGGTKVEIKRTVAAPSVFIFPPSDEQLKSGTASVVCLLNNFYPREAKVQWKVDNALQSGNSQESVTEQDSKDSTYSLSSTLTLSKADYEKHKVYACEVTHQGLSSPVTKSFNRGECGGGGSGGGGSCPPCPAPELLGGPSVFLFPPKPKDTLMISRTPEVTCVVVDVSHEDPEVKFNWYVDGVEVHNAKTKPREEQYNSTYRVVSVLTVLHQDWLNGKEYKCKVSNKALPAPIEKTISKAKGQPREPQVYTLPPSRDELTKNQVSLSCAVKGFYPSDIAVEWESNGQPENNYKTTPPVLDSDGSFFLVSKLTVDKSRWQQGNVFSCSVMHEALHNHYTQKSLSLSPG
notes: also called Met47-LHL-LHL; clone 6
binding result [3]: binds
fold reduction of ability to bind CD47 in comparison to A-D5 IgG1 [4]: > 1000 fold
fold reduction of ability to induce agglutination in comparison to A-D5 IgG1 [5]: > 241 fold

B3: Fab^2 cMETCD47-L2-L2 (bispecific antibody)
heavy: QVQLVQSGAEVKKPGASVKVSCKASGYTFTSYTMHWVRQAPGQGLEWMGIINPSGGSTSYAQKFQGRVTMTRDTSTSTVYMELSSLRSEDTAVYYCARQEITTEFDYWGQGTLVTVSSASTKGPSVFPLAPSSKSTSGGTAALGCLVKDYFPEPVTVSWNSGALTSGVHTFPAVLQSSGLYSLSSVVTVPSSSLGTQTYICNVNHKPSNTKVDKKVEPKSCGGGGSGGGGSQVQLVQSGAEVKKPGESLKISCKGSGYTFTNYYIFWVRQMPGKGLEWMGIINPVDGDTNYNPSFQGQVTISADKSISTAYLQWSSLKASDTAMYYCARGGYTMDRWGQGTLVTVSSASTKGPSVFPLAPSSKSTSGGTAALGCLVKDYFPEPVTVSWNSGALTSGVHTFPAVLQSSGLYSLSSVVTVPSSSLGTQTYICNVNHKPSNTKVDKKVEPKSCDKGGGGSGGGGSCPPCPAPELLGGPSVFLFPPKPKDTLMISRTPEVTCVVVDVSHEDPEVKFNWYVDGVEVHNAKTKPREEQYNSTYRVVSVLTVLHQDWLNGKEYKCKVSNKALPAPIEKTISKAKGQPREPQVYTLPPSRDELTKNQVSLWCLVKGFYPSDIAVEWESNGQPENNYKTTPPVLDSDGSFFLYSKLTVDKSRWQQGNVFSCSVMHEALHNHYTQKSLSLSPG
light: EIVLTQSPGTLSLSPGERATLSCRASQSVSSYANSYLHWYQQKPGQAPRLLIYRGSTRESGIPDRFSGSGSGTDFTLTISRLEPEDFAVYYCQQSKSEPLTFGGGTKVEIKRTVAAPSVFIFPPSDEQLKSGTASVVCLLNNFYPREAKVQWKVDNALQSGNSQESVTEQDSKDSTYSLSSTLTLSKADYEKHKVYACEVTHQGLSSPVTKSFNRGECGGGGSGGGGSDIVMTQSPLSLPVTPGEPASISCRSSQSLLHSNGYNYLHWYLQKPGQSPQLLIYKVSNRLSGVPDRFSGSGSGTDFTLKISRVEAEDVGVYYCFQNTHTPRTFGGGTKVEIKRTVAAPSVFIFPPSDEQLKSGTASVVCLLNNFYPREAKVQWKVDNALQSGNSQESVTEQDSKDSTYSLSSTLTLSKADYEKHKVYACEVTHQGLSSPVTKSFNRGECGGGGSGGGGSCPPCPAPELLGGPSVFLFPPKPKDTLMISRTPEVTCVVVDVSHEDPEVKFNWYVDGVEVHNAKTKPREEQYNSTYRVVSVLTVLHQDWLNGKEYKCKVSNKALPAPIEKTISKAKGQPREPQVYTLPPSRDELTKNQVSLSCAVKGFYPSDIAVEWESNGQPENNYKTTPPVLDSDGSFFLVSKLTVDKSRWQQGNVFSCSVMHEALHNHYTQKSLSLSPG
fold reduction of ability to induce agglutination in comparison to A-D5 IgG1 [5]: > 241 fold

B4: Fab^2 Met47 LHL-LHL (as used in the Tg32 mouse studies) (bispecific antibody, not shown: a dimerising Fc or GST)
heavy: QVQLVQSGAEVKKPGASVKVSCKASGYTFTSYTMHWVRQAPGQGLEWMGIINPSGGSTSYAQKFQGRVTMTRDTSTSTVYMELSSLRSEDTAVYYCARQEITTEFDYWGQGTLVTVSSASTKGPSVFPLAPSSKSTSGGTAALGCLVKDYFPEPVTVSWNSGALTSGVHTFPAVLQSSGLYSLSSVVTVPSSSLGTQTYICNVNHKPSNTKVDKKVEPKSCGPAPELLGGGSQVQLVQSGAEVKKPGESLKISCKGSGYTFTNYYIFWVRQMPGKGLEWMGIINPVDGDTNYNPSFQGQVTISADKSISTAYLQWSSLKASDTAMYYCARGGYTMDRWGQGTLVTVSS
light: EIVLTQSPGTLSLSPGERATLSCRASQSVSSYANSYLHWYQQKPGQAPRLLIYRGSTRESGIPDRFSGSGSGTDFTLTISRLEPEDFAVYYCQQSKSEPLTFGGGTKVEIKRTVAAPSVFIFPPSDEQLKSGTASVVCLLNNFYPREAKVQWKVDNALQSGNSQESVTEQDSKDSTYSLSSTLTLSKADYEKHKVYACEVTHQGLSSPVTKSFNRGECGPAPELLGGGSDIVMTQSPLSLPVTPGEPASISCRSSQSLLHSNGYNYLHWYLQKPGQSPQLLIYKVSNRLSGVPDRFSGSGSGTDFTLKISRVEAEDVGVYYCFQNTHTPRTFGGGTKVEIK
binding result [6]: no binding (tested: 10 µg/ml)
